The text below walks through data of US11826404B2, “Plasminogen treatment of conditions associated with PAI-1 overexpression” (PROMETIC BIOTHERAPEUTICS, INC., priority 2017, dated 2023).

Assay [1] relates to IL-6 mRNA. Nature of the assay: IL-6 mRNA expression by real-time PCR, bleomycin model, plasminogen combined with pirfenidone (Example 3). In kind it is in vivo, mouse. The protocol:
(§1) Male C57BL6 mice are administered intratracheal instillation of bleomycin sulphate (0.007 mg/mouse) at day 0. Human plasminogen was administered subcutaneously at day 10 and day 14, at a dose of either 6 mg/kg, 20 mg/kg, or 60 mg/kg. Animals were sacrificed at day 21. Collagen was quantified by histologic analysis using the staining Red sirus staining (Fluorescence) and analysed at a magnification of 400×. Collagen quantification was performed by segmentation with Image Pro Premier software, and using a sample of 20 fields located in the inflammatory lesions of the lungs. The quantity of collagen has been reported for the total surface of the regions containing inflammatory lesions. This method of quantification allows exclusion of the endogenous content of collagen that is normally contained in the tissue. […] CTGF, IL-6 and PAI-1 mRNA expressions were quantified by real-time PCR using mouse Taqman® Gene-Expression assay normalized to HPRT1 endogenous control (Student's t-test).
(§2) Pulmonary fibrosis in mice is induced by intratracheal instillation of the anticancer drug bleomycin into the mouse. […] Collagen was quantified by histologic analysis using the staining Red sirus staining (Fluorescence) and analysed as described in Example 2. IL-6 mRNA expression was quantified by real-time PCR using mouse Taqman® Gene-Expression assay normalized to HPRT1 endogenous control (Student's t-test).

Assay [2] deals with collagen in the inflammatory lesions of the lungs. Kind of assay: Collagen quantification in inflammatory lesions of the lungs, bleomycin model, plasminogen combined with pirfenidone (Example 3). In kind it is in vivo, mouse. The settings on record: bleomycin-induced mice, day 28, FIG. 8. The protocol: as §1, §2
For another assay, the system named is CTGF mRNA. Kind of assay: CTGF mRNA expression by real-time PCR, bleomycin-induced pulmonary fibrosis mouse model (Example 2). In kind it is in vivo. The settings on record: human plasminogen 6, 20 or 60 mg/kg subcutaneously at day 10 and day 14; bleomycin-induced mice; day 21; not dose-dependent; FIG. 5. An excerpt:
(§3) Pulmonary fibrosis in mice is induced by intratracheal instillation of bleomycin into the mouse. Bleomycin is well-known anticancer drug. First, the bleomycin insult results in an acute inflammation as soon as day 1. Later at about day 10 to day 14, fibrotic events arise and create a chronic fibrotic condition. The bleomycin-induced mice is recognized as an animal model for pulmonary fibrosis. The evaluation of the activity of plasminogen is undertaken by treatment of the mice with plasminogen at appropriate time points. In the present study, plasminogen was administered at day 10 and day 14.
(§4) Male C57BL6 mice are administered intratracheal instillation of bleomycin sulphate (0.007 mg/mouse) at day 0. Human plasminogen was administered subcutaneously at day 10 and day 14, at a dose of either 6 mg/kg, 20 mg/kg, or 60 mg/kg. […] Collagen was quantified by histologic analysis using the staining Red sirus staining (Fluorescence) and analysed at a magnification of 400×. Collagen quantification was performed by segmentation with Image Pro Premier software, and using a sample of 20 fields located in the inflammatory lesions of the lungs. The quantity of collagen has been reported for the total surface of the regions containing inflammatory lesions. This method of quantification allows exclusion of the endogenous content of collagen that is normally contained in the tissue. […]
(In general: Real-time PCR tracks product formation cycle by cycle.)

The test system of assay [3] is IL-6 mRNA. Nature of the assay: IL-6 mRNA expression by real-time PCR, bleomycin-induced pulmonary fibrosis mouse model (Example 2). In kind it is in vivo. Particulars: human plasminogen 6, 20 or 60 mg/kg subcutaneously at day 10 and day 14; bleomycin-induced mice; day 21; not dose-dependent; FIG. 6.
From the text: as §3, §4

The next assay relates to PAI-1 mRNA. Kind of assay: PAI-1 mRNA expression by real-time PCR, bleomycin-induced pulmonary fibrosis mouse model (Example 2). In kind it is in vivo. The settings on record: human plasminogen at all doses (6, 20, 60 mg/kg) subcutaneously at day 10 and day 14; bleomycin-induced mice; day 21; FIG. 7.
From the text: as §3, §4

Assay [4] has as its system collagen in the inflammatory lesions of the lungs. Kind of assay: Collagen quantification in inflammatory lesions of the lungs, bleomycin-induced pulmonary fibrosis mouse model (Example 2). In kind it is in vivo. The settings on record: human plasminogen 60 mg/kg subcutaneously at day 10 and day 14; bleomycin-induced mice; measured at day 21; FIG. 4.
From the text: as §3, §4

For `Cc1ccc(=O)n(-c2ccccc2)c1` [pirfenidone, reference compound], in the assay on IL-6 mRNA [1] (pirfenidone alone, 400 mg/kg oral once a day from day 7 to day 27, day 28, FIG. 9), the “IL-6 expression versus non-treated bleomycin-induced mice” value was “not significantly different”. The “fibrosis (collagen expression in the inflammatory lesions of the lungs)” value in assay [2] (pirfenidone alone, 400 mg/kg oral once a day from day 7 to day 27) is given as “efficient to reduce fibrosis”.

B1: plasminogen: Glu-plasminogen purified from pooled human plasma, purity above 95%; used in Example 2 (protein, UniProt P00747 20-810, looked up)
Plasminogen: EPLDDYVNTQGASLFSVTKKQLGAGSIEECAAKCEEDEEFTCRAFQYHSKEQQCVIMAENRKSSIIIRMRDVVLFEKKVYLSECKTGNGKNYRGTMSKTKNGITCQKWSSTSPHRPRFSPATHPSEGLEENYCRNPDNDPQGPWCYTTDPEKRYDYCDILECEEECMHCSGENYDGKISKTMSGLECQAWDSQSPHAHGYIPSKFPNKNLKKNYCRNPDRELRPWCFTTDPNKRWELCDIPRCTTPPPSSGPTYQCLKGTGENYRGNVAVTVSGHTCQHWSAQTPHTHNRTPENFPCKNLDENYCRNPDGKRAPWCHTTNSQVRWEYCKIPSCDSSPVSTEQLAPTAPPELTPVVQDCYHGDGQSYRGTSSTTTTGKKCQSWSSMTPHRHQKTPENYPNAGLTMNYCRNPDADKGPWCFTTDPSVRWEYCNLKKCSGTEASVVAPPPVVLLPDVETPSEEDCMFGNGKGYRGKRATTVTGTPCQDWAAQEPHRHSIFTPETNPRAGLEKNYCRNPDGDVGGPWCYTTNPRKLYDYCDVPQCAAPSFDCGKPQVEPKKCPGRVVGGCVAHPHSWPWQVSLRTRFGMHFCGGTLISPEWVLTAAHCLEKSPRPSSYKVILGAHQEVNLEPHVQEIEVSRLFLEPTRKDIALLKLSSPAVITDKVIPACLPSPNYVVADRTECFITGWGETQGTFGAGLLKEAQLPVIENKVCNRYEFLNGRVQSTELCAGHLAGGTDSCQGDSGGPLVCFEKDKYILQGVTSWGLGCARPNKPGVYVRVSRFVTWIEGVMRNN
For the molecule B1, the “mRNA expression of CTGF” value with CTGF mRNA is “significantly reduced”. Moreover, the “IL-6 mRNA expression” value with IL-6 mRNA [1] (murine plasminogen alone, 6 mg/kg subcutaneously at days 7, 10, 13, 16, 19 and 23, bleomycin-induced mice, day 28, FIG. 9) is “inhibits IL-6 mRNA expression”; in the assay on IL-6 mRNA [3], “significantly reduced”. In addition, the “PAI-1 mRNA expression (overexpression of PAI-1 in lungs)” value in the assay with PAI-1 mRNA is on record as “reduced”. In assay [2] (murine plasminogen alone, 6 mg/kg subcutaneously at days 7, 10, 13, 16, 19 and 23), the “fibrosis (collagen expression in the inflammatory lesions of the lungs)” value is on record as “efficient to reduce fibrosis”. For the same molecule, the “collagen expression in the inflammatory lesions” value in assay [4] is listed as “significantly reduced”.
